The values below come from a protein production outcome set (Wang et al. 2014).

This data set can be described thus: label from the status in PepcDB records.
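Also: failed if final PepcDB status was selected cloned or expressed and not failed if soluble or beyond.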

Turning to “MKTDLIYGVEDRPPFKDALFAALQHLLAIFVAIITPPLIIASALKLDVEKTSFLVSMSLFASGVSTFIQCRRIGPIGAKLLCIQGTSFSFIGPIIATGLVGGLPLIFGSCIAAAPIEMVVSRTFKYLRNIITPLVSGIVVLLIGLSLIKVGIVSCGGGYSAMDDGSFGSWENLSIAALVLLSVLFFNRCKNKYLRMSSIVFGLCLGYGLAFALGKVNMSALNVEMLMSFNIPQPFKYGIDFNISSFIAIGLVYLITAIEATGDVTANSMISGLPIEGDSYLKRVSGGVMADGFNSLLAGIFNSFPNSIFAQNNGIIQLTGVASRYVGYYIAAMLVLLGLFPIVGAIFSLMPDPVLGGATLLMFGTVAAAGIRIVSSQEIGRKETLVLAVSLSLGLGVELMPDVLKQAPEAIRSIFSSGITTGGLTAIVANMVIRVK”, the protein production result is “not failed”.

As to “MKTEARILKECLAAAAPNCLHSILPPVVRDDQTRSMNKPMESYYHQFLEEFRLPLTNPVLVFSLVLFIILLAPIVSKRFNIPGTVGLILSGVLIGPHSLNLLEKSSAVELFSTIGLLYILLIAGLELDVNDFRKNRYKSALFGLLTFSIPIVLGYPVCRYLLNYPMSTSLLTASMFATHTLVAYPVVSRMGISKNRTVAITVAGTILSDTAVLILLAVIIGYSRGDINHEFWLHLVIALTLFSAIVFIVLPAIARWFFTKLENEKHAHYIFVLAALFFSAFLAKAAGLEPIVGAFAAGLALNPLIPGSSALMNRIEFIGNSLFIPFFLISVGMLVDLRIILSSPIALIIAALLTFVALAGKWLAALSTQKIFGYSAAHRRLIFGLSSSRAAATIAIALVGYRARILDLNILNAIIILILVTCIVSSLVTEKAAKEIVLEENDAAPEKEHAQGDADEQILLPIAENKPSERVLELAVMIREKRSLNPLTILTVVPNDHEAELNVKKAKKELAPTVDFAASFDTSLNIVATIDYNICSGISRAVKESQSNLIIFDWPSRQGFLGRMINDATESIVECTCKTTMICHLTRPLAIHRRIVVICPPFAEKEKGFGQWLRKMSRLSQELTIPLLFHCDRKSRLAIIETLKTSHSTSPVLYEVFKNFREWEDIASRKLHFREDDIVTFVCARRESISYKPFFDLVPEQLEKHVKDISKIMIYPEQFDSAIIEEEYADVVAPKSFPFGASTIRKIREEISGFMKKNQLQIRKKARGKTAATPKRFGFSRKEP”, the protein production result is listed as “failed”.

Take “MKTFTLQDAGDIRRLLTERLMQSVNAGTVPWRQNIIRHGVPIHALSGQLFTGINVLLLWQSALQNGLTSNRWLTGDDLRSLGGSIIPGQRPTTIVRYTPSLSLFRVINIEQCDGLPTELRAGWPWPPAPVPGMERIEKWQRASQVPVLYRGQRPAVYLSESDRIELPGSDQGNLDSLTALLVSATGHPTRLGRSCFTGSDVPERDEYLQESLVADVGRAFLAALAGIPLAGTPMWNGELGSDPWILFKSASEAGKAVDWLEKQRLTTLPFDDVQHWQRLAAHLLTTHYGQQLDDTTLVCDSVVHQHLRYNISPGNAVNALARIYDWPRSDVAPALFILELNSVADAFASFSLNPGSLVVHRVASDIDDNKVVLEAPELETLFLPPPFAKSVDEVAANDEEEGGDPDDPGNLAALPWVRNQGRSNPHRATFIRQFQEIAPYENRWTVFSDFIHMSAAALHNRCHFVQEIEDDYLRRIKRYKKADQNRFPLLFNTLVEGMEFSASDFLGSVFMELELGDQRRGQYFTPYSVGYMMAKLQLADGLPALTSGERDFITVSDPACGAGGLIVAMAQAMLEAGFNPQKQMMAVCVDIDPVAAMMAYVQLALCGIPAMVIVGNSLSMEFRQTWRTPFWMMFGWERKWAREQERKAQQKVA”: the protein production result was “failed”.

For the sequence “MKTINLSIFGLGNVGLNLLRIIRSFNEENRLGLKFNVVFVADSLHSYYNERIDIGKVISYKEKGSLDSLEYESISASEALARDFDIVVDATPASADGKKELAFYKETFENGKDVVTANKSGLANFWPEIMEYARSNNRRIRYEATVAGGVPLFSFIDYSVLPSRIKKFRGIVSLTINYFIRELANKREFDDVLSEATKLGIVEKNYKDDLTGLDAARKSVILCNHLYGSSYRLSDVFYEGILDQDRSFGKNERLVTETGIVNGKPSAESRIKSLDSNDYLLTLGKGSLGYQLQTDTNGTLNVSDLYDGPYETAGAVMNDLVILSMFTV”, the protein production result was “not failed”.

Turning to “MKTIQPCSVEDIQSWLIDQFAQQLDVDPDDIDMEESFDNYDLNSSKALILLGRLEKWLGKELNPVLIFNYPTIAQLAKRLGELYL”, the protein production result is given as “not failed”.

Turning to “MKTIRAILNGKKAGNPELRDAIMKMRDRGVDVQVRVTWESQDMPRLVKEAVTDGIERIVVAGGDGTVNEAASALIHIDHESRPELAIIPLGTANDFATANHIPDSIADALTLAVEGQALSVDCVKANDRCFINVAAAGFGAEVTAETPVELKNFLGGGAYTLTGVVKALGFKPYDGSITIEGGRYDGEMLLGAFCNSRLAGGGQQLAPNAMIDDGLMDLTLVRPFLPHELPKVIEEINNPSEKGEFVKHTRASWLEIDFPNPLPLNLDGEPYHSRKIRFEVQPKSLKLVLPKDCPCVTH”, the protein production result was “failed”.

Consider “MKTKSWIASLFYSSLCFSSSYAINLHQITITDPIMGSRTITYEQVGEFAVVEGDILIGKAENLKNQGAVITPKVGGSRWPNGVIPYEIAENLPFINKLAILQAIDHWQKNTNLEFVELTSKNRYDYRDYISFIPAEGTTCSSYVGRQGGKQEINLAPRCTTMNTVHEIGHALGMWHEQSRSDRNQYIRIVWENIDEEHKFNFDQHLTDGKDFGEYDYGSIMHYGRFAFSKNGQPTIIPLVDGVEIGQRTHLSEKDIAAVKAMYPET”, for which the protein production result is listed as “failed”.

Take “MKTLKVYIPGIKFPSISVTGNYCALNCAHCGRHYLEGMKKITRLNLVDKCVEMEKEGYVGCLLSGGMDSRLKVPLDKFKDEIREIKEKTRLKINAHVGFIDEDDLEWLKYIDVVSLDFVGDNEVIKRVYKIDKTVNDYLKILDILTKERIKVAPHITIGLDFGRIHWEYEAIDLLSEYPIDVLVLNILIPTPGTEMENVKVSMEEALNVVRYAREEFKGELSIGCMRPFGRWREEFDKRAILIGVDRITNPPRKVIEWAKQFRKVEIHFECCVI”: the protein production entry is “failed”.

With “MKTLQTHRVLQALIGHFTPFLESGITELMINTEQELWLYKVNNTREKRGHALFDKAFLLRFCEQLASFRGLFFDEEHPTLNCSIPFTRYRVSANHFSITTNNQITLNIRVPRLKPLSLEDFTFKASDPKSLKDLALKGHNILISGETSSGKTSLLNALLDCVNKDERVVSVEDSQELDLKAFSNCVGLLVGKQENTRFNYEDALNMAMRLNPDRLIVGEIDTRNAALFLRLGNTGHKGMLSTIHANSAQNTLEALSLNLSMRYMYSLDKDLMRAYFKSAIDVIVHVNRINNERQIAEVLWTKEL”, the protein production entry is “failed”.

Regarding “MKTNAGRFFEDYRLGETIAHAVPRTVSGGERALYHALYPARHALSSSDEFARACGLPAAPVDELMAFHLVFGKTVPDISLNAVANLGYAEGRWLKPVFPGDTLRAESTVIGLKENSNGASGVVWVRTRGLNQQGEAVLSYVRWVMVRKRDTAAPAPAPTVPELAGSVAASDLVIPEGLSFTDYDLTLAGEPHRWGDYAVGEKIDHVDGVTVEESEHMLATRLWQNTAKVHFDATNRPDGRRLIYGGHVISLARTLSFNGLANAQMIVALNAGAHANPCFAGDTVRAWSEVLDKAETADPGVGALRLRLVAMKHGTEPFVTRSEDGKYLPGVLLDLDYWALVPR”, the protein production result is reported as “failed”.

For “MKTNEVLETIKARRSVRAYDRKQIPADDLNAILEAGAYAPSGMHYETWHFTAVCNTVKLEELNERIKGAFAKSDDKHLRERGHSETYCCYYHAPTLVIVSNEPKQWWAGMDCACAIENMFLAATSLGIASCWINQLGTTCDDPEVRAYLTSLGVPENHKVYGCVALGYKAEGALLKEKTVKAGTITIVE”, the protein production result is recorded as “not failed”.

On to “MKTPTRVSFEKKIHTPPSGDRDAERSPPKKFLRGLSGKVFRKTPEFKKQQMPTFGYIEESQFTPNLGLMMSKRGNIPKPLNLSKPISPPPSLKKTAGSVASGFSKTGQLSALQSPVNITSSNKYNIKATNLTTSLLRESISDSTTMCDTLSDINLTVMDEDYRIDGDSYYEEDSPTFMISLERNIKKCNSQFSPKRYIGEKCLICEESISSTFTGEKVVESTCSHTSHYNCYLMLFETLYFQGKFPECKICGEVSKPKDKDIVPEMVSKLLTGAGAHDDGPSSNMQQQWIDLKTARSFTGEFPQFTPQEQLIRTADISCDGFRTPRLSNSNQFEAVSYLDSPFLNSPFVNKMATTDPFDLSDDEKLDCDDEIDESAAEVWFSKTGGEHVMVSVKFQEMRTSDDLGVLQDVNHVDHEELEEREKEWKKKIDQYIETNVDKDSEFGSLILFDKLMYSDDGEQWVDNNLVILFSKFLVLFDFEEMKILGKIPRDQFYQVIKFNEDVLLCSLKSTNIPEIYLRFNENCEKWLLPKWKYCLENSSLETLPLSEIVSTVKELSHVNIIGALGAPPDVISAQSHDSRLPWKRLHSDTPLKLIVCLNLSHADGELYRKRVLKSVHQILDGLNTDDLLGIVVVGRDGSGVVGPFGTFIGMINKNWDGWTTFLDNLEVVNPNVFRDEKQQYKVTLQTCERLASTSAYVDTDDHIATGYAKQILVLNGSDVVDIEHDQKLKKAFDQLSYHWRYEISQRRMTPLNASIKQFLEELHTKRYLDVTLRLPQATFEQVYLGDMAAGEQKTRLIMDEHPHSSLIEIEYFDLVKQQRIHQTLEVPNL”, for which the protein production entry is “failed”.

With “MKTTRTCKINSITKEQTEALITLIRTFESAKRYSFNRLIEGESEKELIKKLQLKYLLNKRFCEDAVLQVQTILSSQKELLPVYLENNQKKLEKTLQKKMIMKVAGKTQKKFH”, the protein production entry is “failed”.

Consider “MKTVGVVLSGCGVLDGAEIHESVLTMLALDRAGAEVLFFAPDKPQLHVINHITGEIVAEERNVLVESARIARGLITPLSAADPEVLDALIVPGGFGAAKNLCDFAIKGGECSVEPDLYKLIQLMHKSGKPIGLMCISPVMLPKLLGKPIRLTIGNDPDTIDAIEIMGGEHVICPADDVVIDLENKVVTTPAYMLAGSISEAAKGIDKLVTKVLDLTE”, for which the protein production result is “failed”.

On to “MKTVNIGLIGAGRIGQLHASNIISSPYMELKAVSDVQLDHLKGTEIERSVEIMTTNPDELFSNRDIDAIFICSSTDTHAAFIKAAALAGKHIFCEKPISFHVTETKGALNIVNEAGVKFQVGFNRRYDKHFRRVQECVQAGAIGAPHIIRVSSRDPEAPPLSYVERSGGMFMDMTIHDFDMVRYLSGSEVTEVSVKAANLVDSRIGEVGDVDTAIITLMLENGAIAVIDNSRQAAYGYDQRVEVFGSLGSVSADNERKTNVQISTKDTVTLDLPKHFFLDRYEQAYKDEVAEFATAILEDQPLRCTGEDGYKAELLALAAKQSWLENRPVAVKDVEVLEEHAKSE”, for which the protein production result is on record as “failed”.

“MKVFFNKIPLALSSLVLALFSLSNQISQYTLFSQGIWLIAVFGFFLVLGRPIIGYRQTQEDLHNPVIASAFPSFFMAAFLFAGRLPLAQADLSIAWIVVLIGLYIAYIIFFSLRFLRPLVLEQVYPSWFVVYVGPAINLVTIPDSIPNSTKALILGLTGLATLALFPLIFWRMRRLAIPQPVLPILAILAAPLALLITSSIKSGQKPDTILLVGLLIFSQLFFFFALGLFTRLVNKGFVPLFAAFSFPLVNSINAFKAATTSLGLVNPATQLVYKVEFVFVLVIMTYLLYHFLKLLYKALIQALNTKKQAGSV”: the protein production entry was “failed”.

Regarding “MKVFIIGAAGGIGNRLSSLLHARGDAVSGMHRNLEQASKITDTGATAVLGDLIHNSTEELAELFRGHDAIVFSAGAHGTGQENTTLIDGAGLRKAADAASAANVSRFILVSAFPESSRGENTTENFEHYMKVKKSADVYLSHTDLDWVIVRPGVLQDEAGDGLVTAGLAINYGNVARDNVAAFIDEALHQPQLSKIIVELTDGSTPVAEAVERLIKLEHHHHHH”, the protein production result is “not failed”.

In the case of “MKVGIDAGGTLIKIVQESQQGRSYETKLTTNISEVIAWLNANTFESISLTGGNAGVIAENLNVDATIFVEFDASSKGLGMLLKEQGHHIDEYIFANVGTGTSLHYFDGKQQRRVGGVGTGGGMIQGLGYLLSQITDYEALTNLAQSGDRDTIDLKVKHIYKDTEPPIPGELTAANFGNVLHNLDVDFSPANKLASVVGVVGEVITTMAITVARENKTENVVYIGSSFNNNPLLREVIEDYTVLRGFKPYYIENGAFSGALGAIYLN”, the protein production result is “failed”.
